In paper doi:10.64898/2025.12.15.690641:

T1: CsubMADS1 (Coccomyxa subellipsoidea C-169, UniProt I0YWG3 1-102)
T1 sequence: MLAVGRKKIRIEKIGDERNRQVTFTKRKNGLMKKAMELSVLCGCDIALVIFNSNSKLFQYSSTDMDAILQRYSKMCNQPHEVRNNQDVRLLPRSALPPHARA


Target: T1, CsubMADS1
Experiment: EMSA

Binder	binding result
CAB24 CArG probe (dsDNA) DNA 1: AATTCATCGATCGTTTACAAAAAAAAGAAATATCGATCGG DNA 2: CCGATCGATATTTCTTTTTTTTGTAAACGATCGATGAATT	binds
CAB8 CArG probe (dsDNA) DNA 1: AATTCATCGATCGTTTACTTTTTTTAGAAATATCGATCGG DNA 2: CCGATCGATATTTCTAAAAAAAGTAAACGATCGATGAATT	binds
